Experimental data: the nanobody polyreactivity screen of Harvey et al. (2022)

Experiment: yeast display, Sf9 membrane polyspecificity reagent, FACS + sequencing; frameworks hold sequencing errors
Procedure, shortened: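 A synthetic nanobody library was expressed on Saccharomyces cerevisiae BJ5465 by galactose induction for 36–48 hours. The library was stained for 1 hour at 4 °C with 10% biotinylated, detergent-solubilized Sf9 membrane reagent and enriched with streptavidin microbeads before FACS. Low and high (top ~1%) gates were set on anti-HA fluorescence for expression and streptavidin fluorescence for reagent binding, and each polyreactivity label reflects the gate of origin.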

| Sequence | polyreactivity (PSR sort gate) |
| --- | --- |
| QVQLVESGGGLVQAGGSLRLSCAASGNIFSAYALGWYRQAPGKERELVATITSGGITYYADSVKGRFTISRDNAKNTVYLQMNSLNPEDTAVYYCNADHHGQAEYGYWGQGTQVTVSS | low polyreactivity |
| QVQLVESGGGLVQAGGSLRLSCAASGNIFSRYAMGWYRQAPGKERELVAAISKSGGSTYYADSVKGRFTISRDNAKNTVYLQMNSLKPEDTAVYYCAAYTFFLGYPEFDYWGQGTQVTVSS | high polyreactivity |
| QVQLVESGGGLVQAGGSLRLSCAASGNIFSSYAMGWYRQAPGKERELVARITTSAGRTYYADSVKGRFTISRDNAKNTVYLQMNSLKREETAVYSCAARGQSAYSIWRYYYWGQGTQVTVSS | high polyreactivity |
| QVQLVESGGGLVQAGGSLRLSCAASGNIFSVYAMGWYRQAPGKERELVAAISSSGGRTYYADSVKGRFTISRDNAKNTVYLQMNSLKPEDTAVYYCNTAGYDYYSTQAYDYWGQGTQVTVSS | high polyreactivity |
| QVQLVESGGGLVQAGGSLRLSCAASGNIFSWYAMGWYRQAPGKERELVAAITSGGRTYYADSVKGRFTISRDNAKNTVYLQMNSLKPEDTAVYYCNAVSRLYNRRDYWGQGTQVTVSS | high polyreactivity |
| QVQLVESGGGLVQAGGSLRLSCAASGNIFSYYAMGWYRQAPGKERELVAAISSGGSTYYADSVKGRFTISRDNAKNTVYLQMNSLKPEDTAVYYCATSYFSYFFYEYYSWGQGTQVTVSS | low polyreactivity |
| QVQLVESGGGLVQAGGSLRLSCAASGNIFTKYAMGWYRQAPGKERELVAAITWSGGSTYYADSVKGRFTISRDNAKNTVDLQMNILKPEDTAVYYCATAHVFRRDKPYDYWGQGTQVTVSS | high polyreactivity |
| QVQLVESGGGLVQAGGSLRLSCAASGNIFVAYAMGWYRQAPGKERELVAAITSGGRTYADSVKGRFTISSDNAKNTVYLQMNSLKPEDTAVYYCNADPYYVYLGYYDRYYSGYGYWGLGTQVTVSS | low polyreactivity |
| QVQLVESGGGLVQAGGSLRLSCAASGNIFVAYAMGWYRQAPGKERELVAVISNGGRTYYADSVKGRFTISRDKAKNNVYLQMNSLKPADTAVSYCATVAHASYGWHNYWGQGTQVTVSS | high polyreactivity |
| QVQLVESGGGLVQAGGSLRLSCAASGNIFVDNAMGWYRQAPGKERELVAAITFSGDDTYYADSVKGRFTISRDNAKNTVYLQMNSLKPEDTAVYYCNAVPTLYWWYDYWGQGTQVTVSS | low polyreactivity |
| QVQLVESGGGLVQAGGSLRLSCAASGNIFVINAMGWYRQAPGKERELVAAISWSTANTYYADSVKGRFTISRDNAKNTVYLQLNSLKPEDTAVYYCAAVFRYYTYSGAVRYYYWGQGTQVTVSS | high polyreactivity |
| QVQLVESGGGLVQAGGSLRLSCAASGNIFVRYAMGWYRQAPGKEREFVAAISSSGGSTRYADSVKGRFTISRDNAKNTVYLQMNSLKPEDTAVYYCAATRVARHGSPMYYWGQGTQVTVSS | high polyreactivity |
| QVQLVESGGGLVQAGGSLRLSCAASGNIFVSNVMGWYRQAPGKERELVAAISSGGRTYYADSVKGRFTISRDNAKNTVYLQMNSLKPEDTAVYYCAASYKSKYLGGGEYWGQGTQVTVSS | high polyreactivity |
| QVQLVESGGGLVQAGGSLRLSCAASGNIFVYNAMGWYRQAPGKEREFVAAIDSGGSTYYADSVKGRFTISRDNAKNTVYLQMNSLKPEDTAVYYCARAVVQSRGPPRYKTPYDYWGQGTQVTVSS | low polyreactivity |
| QVQLVESGGGLVQAGGSLRLSCAASGNIFWWNAMGWYRQAPGKERELVAAITSDSTTYYADSVKGRFTISRDNAKNTVYFQMNCLKPEDTAVYYCAAYSYGGQGVDYGYWGQGTQVSVSS | low polyreactivity |
| QVQLVESGGGLVQAGGSLRLSCAASGNIFYGYAMGWYRQAPGKERELVAAISRAGRTYYADSVKGRFTISRDNAKNTVYLQMNSLKPEDTAVYYCAADFYYASYVRYNYWGQGTQVTVSS | low polyreactivity |
| QVQLVESGGGLVQAGGSLRLSCAASGNIFYYYAMGWYRQAPGKERELVADITSGGDTDYADSVKGRFTISRDNAKNTVYLQMNSLKPEDTAVYYCNAQYYFHVTYDYWGQGTQVTVSS | low polyreactivity |
| QVQLVESGGGLVQAGGSLRLSCAASGNIIQYYAMGWYRQAPGKERELVADIDSSGASKYYADSVKGRFTISRDNAKNTVYLQMNSLKPEVTAVYYCAAEFHWWYAGYDYGYWGQGTQVTVSS | low polyreactivity |
| QVQLVESGGGLVQAGGSLRLSCAASGNIIYQNAKGLYRQAPGKERELVAAITGRGSSTYYADSVKGRFTISRDNAKNTVYLQMNSMKPEDTAVYYCAADTTPYDGYYGHGYWGQGTQVTVSS | low polyreactivity |
| QVQLVESGGGLVQAGGSLRLSCAASGNILFNNSMGWYRQAPGKERELVAAISRSAGSTYYADSVKGSFTISRDNEKNTVYLQMNRLKPEDTAVYYCAAQYFRRSGYWGQGTQVTVSS | high polyreactivity |
| QVQLVESGGGLVQAGGSLRLSCAASGNILLFNAMGWYRQAPGKERELVATINQSGGRTYYADSVKGRFTISRDNAKNTVYLQMNSLKPEDTAVYYCAATRRYPPYFHHYDYWGQGTQVTVSS | low polyreactivity |
| QVQLVESGGGLVQAGGSLRLSCAASGNILSVNAMGWYRQAPGKERELVASIRSSTASTYYADSVKGRFTISRDNAKNTVYLQMNSLKPEDTAVYYCAARARYNRYDYWGQGTQVTVSS | high polyreactivity |

| Sequence | polyreactivity (PSR sort gate) |
| --- | --- |
| QVQLVESGGGLVQAGGSLRLSCAASGNIYAYYAMGWYRQAPGKEWELVAAITDSGGNTFYADSVKGRFTISRDNAKNTVYLQMNSLKPVDTAVYYCAADPDGWGFVYPRYDYWGQGTQVTVSS | low polyreactivity |
| QVQLVESGGGLVQAGGSLRLSCAASGNIYPYYAIGWYRQAPGKERELVAAINAGGGNTYYADSVKGRFTISRDNAKNTVYLQMNSLKPEDTAVYYCAARRVRIYYGSVVWYKYDYWGQGTQVTVSS | high polyreactivity |
| QVQLVESGGGLVQAGGSLRLSCAASGNMFYANAMGWYRQAPGKERELVAAISGSVCSTYADSVKGRFTISRDNAKNTVYLQMNSLKPEDTAVYYCNASVLDAIFYKSVGYDYWGQGTQVTVSS | low polyreactivity |
| QVQLVESGGGLVQAGGSLRLSCAASGNNFLLYAMVWYRQAPGKEREFVAAITWIAGSTYYADSVKGRFTISRDNAKNTVYLQMNSLKPEDTAVYYCAADSYWYDMDYWGQGTQVTVSS | high polyreactivity |
| QVQLVESGGGLVQAGGSLRLSCAASGNNFRRYAMGWSRQAPGKERELVAAITWRGGNTYYADSVKGRFTISRDIAKNTVYLQRNSLKPEDTAVYYCNRVYRQRLGRDYWGQGTQVTVSS | high polyreactivity |
| QVQLVESGGGLVQAGGSLRLSCAASGNTFAFNAMGWYRQATGKEREFVAAISYSGVSTYYADSVKGRFTISRDNAKNTVYLQMNSLKPEDTAVYYCAARYGWYKYWYDYWGQGTQVTVSS | high polyreactivity |
| QVQLVESGGGLVQAGGSLRLSCAASGNTFAYYAMGWYRQAPGKERELVAAISGSGGRTYYADSVKGRFTISRDNAKNTVYFQMNILKPEDTAVYYCNARPAGGLGYGYWGQGTQVTVSS | high polyreactivity |
| QVQLVESGGGLVQAGGSLRLSCAASGNTFDSYVMGWYRQAPGKERELVAAISYRGGSTYYADSVKGRFTISRDNAKNTVYLQMNSLKPEDSAVYFCAADYFYYVYSYWYDSWGQGTQVTVSS | high polyreactivity |
| QVQLVESGGGLVQAGGSLRLSCAASGNTFGAYAMGWYRQAPGKERELVAAITWSGGRTYYADSVKGRFTISRDNAKNTVYLQMNSLKPEDTAVYYCAADYGYYRGGVRFGYWGQGTQVTVSS | high polyreactivity |
| QVQLVESGGGLVQAGGSLRLSCAASGNTFGENAMGWYRQAPGKERELVAAISNGGTTNYADSVKGRFTISRDNAKNTVYLQMNSLKPEDTAVYYCNAKFGISQPGHSGLLKMDYWGQGTQVTVSS | low polyreactivity |
| QVQLVESGGGLVQAGGSLRLSCAASGNTFGENAMGWYRQAPWKERELVAAISNGGTTNYADSVKGRFTISRDNAKNTVYLQMNSLKPEDTAVYYSNAKFGISQPGHSGLLKMDYWGQGTQVTVSS | low polyreactivity |
| QVQLVESGGGLVQAGGSLRLSCAASGNTFGFNTMGWYRQAPGKERELVAAISKSGTRTFYADSVKGRFTISRDNAKNTVYLQMNSLKPEDTAVYYCAAVAKGGNWPAQGGGHDYWGQGTQVTVSS | high polyreactivity |
| QVQLVESGGGLVQAGGSLRLSCAASGNTFGIYAMGWYRQAPGKERELVAAISSGTSTNYADSVKGRFTISRDNAKNTVYLQMNSMKPEDTAVYYCNADDQYQDVREDYWGQGTQVTVSS | low polyreactivity |
| QVQLVESGGGLVQAGGSLRLSCAASGNTFGRNAMGWYIQAPGKERELVAAIDIGADTNYADSVKGRFTISRDNAKNTVYLQMNSLKPEDTAVYYCAASYRYVRWKWGYNYWGQGTQVTVSS | high polyreactivity |
| QVQLVESGGGLVQAGGSLRLSCAASGNTFGWNAMGWSRQAPGKERELVAAIDIGADTNYADSVKGRFTISRDNAKNTVYLQMNSLKPEDTAVYYCAASYRYVRWKWGYNYWGQGTQVTVSS | high polyreactivity |
| QVQLVESGGGLVQAGGSLRLSCAASGNTFGYYAMGWYRQAPGKERELVAAINFGGDTSYADSVKGRFTISRDNAKNTVYLQMNSLKPEDTAVYYCAADGSYWIYADGDYWGQGTQVTVSS | low polyreactivity |
| QVQLVESGGGLVQAGGSLRLSCAASGNTFHTNAMGWYRQAPGKERELVAAITGGGSTYYADSVKGRFTISRDNAKNTVYLQMNSLKPEDTAVYYCNTDVPYGLDVSDTIDYYYWGQGTQVTVSS | low polyreactivity |
| QVQLVESGGGLVQAGGSLRLSCAASGNTFKYYAMGWYRQAPGKERELVAAITWNGARTYYADSVKGRFTISRDNAKNTVYLQMNSLKPEDTAVYYCNARQGYRFDYWGQGTQVTVSS | high polyreactivity |
| QVQLVESGGGLVQAGGSLRLSCAASGNTFNAFNAMGWYRQAPGKERELVAAISRRGGSTYYADSVKGRFTISRDNAKNTVYLQMNSLKPEDTAVYYGAAYYSRSKYDYWGQGTQVTVSS | high polyreactivity |
| QVQLVESGGGLVQAGGSLRLSCAASGNTFPFNAMGWYRQAPGKERELVAAISRGGSTYYADSVKGRFTISRDNAKNTVYLQMNSLKPDDTAVYYCAAGYRRQGYGGYDYWGQGTQVTVSS | high polyreactivity |
| QVQLVESGGGLVQAGGSLRLSCAASGNTFPVYAMGWYRQASGKERELVATITSGGSTNYADSVKGRFTISRDNAKNTVYLQMNSLKPEDTAVYDCARRAVYAKRRYDYWGQGTQVTVSS | low polyreactivity |
